Results on 91 sequences are retold here after the supplement of paper PMC9112550, “Optimization of the antimicrobial peptide Bac7 by deep mutational scanning” (BMC Biology, 2022).

The subject of this data set is Escherichia coli TOP10. Put plainly: shrunken log2 fold change of peptide-encoding DNA abundance (4.5 h post-induction vs induction); higher = less antimicrobial activity (less host growth inhibition). To be noted: time post-induction: 4.5 h; library: site-saturation at positions 5, 18, 19, 20.
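Also: peptides expressed intracellularly from a pBAD plasmid library in pooled LB shake-flask culture, induced with 0.3% L-arabinose, DNA abundance read by NGS, three biological replicates, DESeq2 with apeglm shrinkage.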

As for RRIRYRPPRLPRPRPRPVHHPRP, the “shrunken log2 fold change” value is -0.211.

Turning to RRIRFRPPRLPRPRPRPHQRPRP, the “shrunken log2 fold change” value was -0.183.

On to RRIRMRPPRLPRPRPRPTEEPRP, for which the “shrunken log2 fold change” value is -0.000967.

Regarding RRIRKRPPRLPRPRPRPINTPRP, the “shrunken log2 fold change” value is -0.0237.

As for RRIRARPPRLPRPRPRPLTRPRP, the “shrunken log2 fold change” value worked out at 0.284.

In the case of RRIRFRPPRLPRPRPRPYTHPRP, the “shrunken log2 fold change” value was -0.532.

As to RRIRWRPPRLPRPRPRPGNMPRP, the “shrunken log2 fold change” value was -0.11.

Regarding RRIRPRPPRLPRPRPRPGISPRP, the “shrunken log2 fold change” value was -0.155.

In the case of RRIRDRPPRLPRPRPRPKEFPRP, the “shrunken log2 fold change” value was 0.0479.

Turning to RRIRPRPPRLPRPRPRPGSNPRP, the “shrunken log2 fold change” value was -0.082.

Regarding RRIRVRPPRLPRPRPRPGDPPRP, the “shrunken log2 fold change” value was 0.172.

With RRIRDRPPRLPRPRPRPVRLPRP, the “shrunken log2 fold change” value amounted to 0.28.

RRIRVRPPRLPRPRPRPPGMPRP: the “shrunken log2 fold change” value came out at 0.172.

As for RRIRYRPPRLPRPRPRPFKCPRP, the “shrunken log2 fold change” value is -0.135.

For the sequence RRIRPRPPRLPRPRPRPNHGPRP, the “shrunken log2 fold change” value is -0.0975.

Consider RRIRLRPPRLPRPRPRPDQAPRP, for which the “shrunken log2 fold change” value is -0.00133.

As for RRIRPRPPRLPRPRPRPLCLPRP, the “shrunken log2 fold change” value is -0.294.

Consider RRIRIRPPRLPRPRPRPCAEPRP, for which the “shrunken log2 fold change” value is -0.358.

For RRIRHRPPRLPRPRPRPRHQPRP, the “shrunken log2 fold change” value worked out at 0.0252.

For the sequence RRIRMRPPRLPRPRPRPIQTPRP, the “shrunken log2 fold change” value is -0.00151.

As to RRIRGRPPRLPRPRPRPCGPPRP, the “shrunken log2 fold change” value was found to be 1.29.

For the sequence RRIRFRPPRLPRPRPRPQLPPRP, the “shrunken log2 fold change” value is -0.0654.

On to RRIRWRPPRLPRPRPRPMHNPRP, for which the “shrunken log2 fold change” value was -0.218.

For the sequence RRIRTRPPRLPRPRPRPDSDPRP, the “shrunken log2 fold change” value was -0.65.

As to RRIRQRPPRLPRPRPRPIPEPRP, the “shrunken log2 fold change” value came to 0.0343.

With RRIRKRPPRLPRPRPRPGYPPRP, the “shrunken log2 fold change” value came to 0.0931.

In the case of RRIRSRPPRLPRPRPRPCDTPRP, the “shrunken log2 fold change” value is -0.227.

Regarding RRIRDRPPRLPRPRPRPIVEPRP, the “shrunken log2 fold change” value came out at 0.0518.

Regarding RRIRPRPPRLPRPRPRPHLMPRP, the “shrunken log2 fold change” value is -0.0526.

Regarding RRIRARPPRLPRPRPRPQKNPRP, the “shrunken log2 fold change” value is 0.0395.

For RRIRVRPPRLPRPRPRPCMHPRP, the “shrunken log2 fold change” value was 1.2.

For the sequence RRIRYRPPRLPRPRPRPCYFPRP, the “shrunken log2 fold change” value is -1.04.

On to RRIRTRPPRLPRPRPRPHAMPRP, for which the “shrunken log2 fold change” value was -0.31.

RRIRNRPPRLPRPRPRPQRLPRP: the “shrunken log2 fold change” value was 0.0491.

With RRIRQRPPRLPRPRPRPKMDPRP, the “shrunken log2 fold change” value is -0.111.

Turning to RRIRQRPPRLPRPRPRPWHEPRP, the “shrunken log2 fold change” value was -0.00567.

For the sequence RRIRSRPPRLPRPRPRPRHYPRP, the “shrunken log2 fold change” value was -0.172.

On to RRIRNRPPRLPRPRPRPINNPRP, for which the “shrunken log2 fold change” value was -0.652.

On to RRIRWRPPRLPRPRPRPPMGPRP, for which the “shrunken log2 fold change” value stood at 0.362.

Regarding RRIRDRPPRLPRPRPRPGFCPRP, the “shrunken log2 fold change” value came out at 0.567.

As to RRIRDRPPRLPRPRPRPVDTPRP, the “shrunken log2 fold change” value was -0.0119.

For the sequence RRIRIRPPRLPRPRPRPNRLPRP, the “shrunken log2 fold change” value was -0.286.

With RRIRVRPPRLPRPRPRPETGPRP, the “shrunken log2 fold change” value came to 0.206.

For RRIRKRPPRLPRPRPRPFLWPRP, the “shrunken log2 fold change” value was -0.119.

For the sequence RRIRYRPPRLPRPRPRPLSGPRP, the “shrunken log2 fold change” value is -0.0308.

On to RRIRWRPPRLPRPRPRPALLPRP, for which the “shrunken log2 fold change” value is 0.584.

In the case of RRIRTRPPRLPRPRPRPMVRPRP, the “shrunken log2 fold change” value was -0.0017.

RRIRQRPPRLPRPRPRPQIPPRP: the “shrunken log2 fold change” value was -0.214.

For the sequence RRIRSRPPRLPRPRPRPFYRPRP, the “shrunken log2 fold change” value is -0.271.

Take RRIRVRPPRLPRPRPRPMFIPRP: the “shrunken log2 fold change” value was -0.384.

For the sequence RRIRTRPPRLPRPRPRPQPDPRP, the “shrunken log2 fold change” value is -0.136.

Consider RRIRIRPPRLPRPRPRPNTCPRP, for which the “shrunken log2 fold change” value is -0.85.

As to RRIRSRPPRLPRPRPRPKITPRP, the “shrunken log2 fold change” value was -0.325.

For the sequence RRIRGRPPRLPRPRPRPQVNPRP, the “shrunken log2 fold change” value was found to be 0.0954.

For RRIRHRPPRLPRPRPRPMKDPRP, the “shrunken log2 fold change” value is -0.778.

As to RRIRMRPPRLPRPRPRPTNPPRP, the “shrunken log2 fold change” value was 0.149.

As for RRIRYRPPRLPRPRPRPSHVPRP, the “shrunken log2 fold change” value is -1.58.

On to RRIRLRPPRLPRPRPRPKYIPRP, for which the “shrunken log2 fold change” value was -0.603.

As for RRIRPRPPRLPRPRPRPKLRPRP, the “shrunken log2 fold change” value stood at 0.204.

As for RRIRNRPPRLPRPRPRPWNKPRP, the “shrunken log2 fold change” value was -0.184.

For the sequence RRIRMRPPRLPRPRPRPFYAPRP, the “shrunken log2 fold change” value is -0.47.

Regarding RRIRDRPPRLPRPRPRPLPAPRP, the “shrunken log2 fold change” value is 0.574.

As to RRIRYRPPRLPRPRPRPVEHPRP, the “shrunken log2 fold change” value was -0.0137.

Regarding RRIRMRPPRLPRPRPRPSRIPRP, the “shrunken log2 fold change” value was determined as 0.0606.

For the sequence RRIRRRPPRLPRPRPRPDTWPRP, the “shrunken log2 fold change” value is -0.131.

As for RRIRVRPPRLPRPRPRPCGKPRP, the “shrunken log2 fold change” value is -0.15.

For the sequence RRIRARPPRLPRPRPRPPKQPRP, the “shrunken log2 fold change” value came to 0.0504.

For the sequence RRIRIRPPRLPRPRPRPFKQPRP, the “shrunken log2 fold change” value was -0.246.

As for RRIRMRPPRLPRPRPRPFTLPRP, the “shrunken log2 fold change” value was -0.0107.

Regarding RRIRVRPPRLPRPRPRPIFLPRP, the “shrunken log2 fold change” value is -0.157.

In the case of RRIRGRPPRLPRPRPRPATAPRP, the “shrunken log2 fold change” value was 0.979.

With RRIRFRPPRLPRPRPRPHCKPRP, the “shrunken log2 fold change” value is -0.112.

Turning to RRIRNRPPRLPRPRPRPMHAPRP, the “shrunken log2 fold change” value is 0.0438.

Consider RRIRCRPPRLPRPRPRPNLHPRP, for which the “shrunken log2 fold change” value was -0.619.

RRIRWRPPRLPRPRPRPIIPPRP: the “shrunken log2 fold change” value is -0.104.

In the case of RRIRDRPPRLPRPRPRPGVYPRP, the “shrunken log2 fold change” value stood at 0.0379.

On to RRIRCRPPRLPRPRPRPHHCPRP, for which the “shrunken log2 fold change” value worked out at 0.00372.

RRIRPRPPRLPRPRPRPRPIPRP: the “shrunken log2 fold change” value was found to be 0.27.

Turning to RRIRCRPPRLPRPRPRPWWRPRP, the “shrunken log2 fold change” value came to 0.157.

Consider RRIRDRPPRLPRPRPRPDMSPRP, for which the “shrunken log2 fold change” value is -0.0165.

For the sequence RRIRYRPPRLPRPRPRPGRKPRP, the “shrunken log2 fold change” value was -0.155.

On to RRIRERPPRLPRPRPRPPPMPRP, for which the “shrunken log2 fold change” value turned out to be 0.271.

In the case of RRIRPRPPRLPRPRPRPNWYPRP, the “shrunken log2 fold change” value is -0.338.

On to RRIRWRPPRLPRPRPRPYLKPRP, for which the “shrunken log2 fold change” value is -0.911.

With RRIRTRPPRLPRPRPRPANKPRP, the “shrunken log2 fold change” value is -0.216.

Take RRIRCRPPRLPRPRPRPQVCPRP: the “shrunken log2 fold change” value was -0.203.

Take RRIRYRPPRLPRPRPRPRPNPRP: the “shrunken log2 fold change” value was -0.0554.

Turning to RRIRSRPPRLPRPRPRPVANPRP, the “shrunken log2 fold change” value was 0.152.

As to RRIRDRPPRLPRPRPRPWIQPRP, the “shrunken log2 fold change” value is -0.653.

RRIRIRPPRLPRPRPRPTNKPRP: the “shrunken log2 fold change” value was -0.687.

Take RRIRIRPPRLPRPRPRPTTDPRP: the “shrunken log2 fold change” value is -0.0551.
